Assay [1] addresses MED14-NTD+H+M+MED26, 16-subunit recombinant human core Mediator with f:MED14-NTD (1-760) (human) (UniProt O60244).
For assay [2] the target is unchanged. The assay is described as follows: co-IP; competition: MED14-NTD+H+M+MED26 on anti-MED30 beads with Pol II and recombinant RPB1 as competitor, equal amounts of His:RPB1 or up to 10-fold more f:RPB1 or f:ΔCTD RPB1 than Pol II; western blot.

A value given as a limit tells only on which side of the number the result lay.

For the substance “RNA polymerase II (Pol II), Gdown1-free, purified from HeLa nuclear extract (from UniProt P24928 1-1970; P30876 1-1174; P19387 1-275; O15514 1-142; P19388 1-210; P61218 1-127; P62487 1-172; P52434 1-150; P36954 1-125; P62875 1-67; P52435 1-117; P53803 1-58) (complex)”, the basal in vitro transcription from AdML core promoter templates in Mediator-depleted HeLa NE, 50 nM complex, against Mediator-deficient controls in assay [1] was above 15 fold.

Consider “recombinant His:RPB1 (from UniProt P24928 1-1970) (natural protein)”, for which, in assay [2], the percent reversal of the MED14-NTD+H+M+MED26-Pol II interaction at a 1:1 ratio is below 50%.

Source of the values: PMC12719649.
